Data published in a protein production outcome set (Wang et al. 2014).

Test: label from the status in PepcDB records
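Also: failed if final PepcDB status was selected cloned or expressed and not failed if soluble or beyond.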

Row | Sequence | protein production
1 | AIAAQKISEAHEHIAKAEKYLKTSFMKWKPDYDSAASEYAKAAVAFKNAKQLEQAKDAYLQEAEAHANNRSLFHAAKAFEQAGMMLKDLQRMPEAVQYIEKASVMYVENGTPDTAAMALDRAGKLMEPLDLSKAVHLYQQAAAVFENEERLRQAAELIGKASRLLVRQQKFDEAAASLQKEKSMYKEMENYPTCYKKCIAQVLVQLHRADYVAAQKCVRESYSIPGFSGSEDCAALEDLLQAYDEQDEEQLLRVCRSPLVTYMDNDYAKLAISLKVPGGGGGKKKPSASASAQPQEEEDDEYAGGLC | failed
2 | AIAASGKRKGLSFDDKKTRLLELFNETCDFYTLKELEKIAPKLKGIITQSVKDVLQSLVDDDLVNSDKCGVQTIYWCLPSEAVAKRQRRLDALQQQLAEKRQKLTALQRQLVQVQAGREDSVERTAVLERLAACEAAWRERQRTLESYLECDPDVLAQRETETKTLIEQANRWTDNLYVIRSYVQRNLGVDLDLFDQQFELKPALQYLE | failed
3 | AIADELNSPLGERAQGASLAHVVWSDPQWLERYPLTFENVLTYFSRSPFYDPTCNNELVRMQMHPELQGEMLYYTQREEELLLGMQGVEYVPLCSSDAHELFIIRKQVRRSADEVHVTNLYYILYGQVYEAPAFSTVLLVRLRQSADFLVRSLGLLRQWLSKKEYGEPGATGHGHEDTLLLQLLRKAQQRNRQL | failed
4 | AIAEAKTLGIATPRKPVLSVSARKLKDNAADWHNLILKWDSLSDKGFTTASSIANLKVSLLSKEKVELESSSPASMEEEEKTNLDYDKGLEALCEELQAILDGLTKIQMKMEKLSSTTKGICELENYHYREESSRPPLFHTWPTAFFYEVSRRLSEAYKKELLLKHTIGAELAHTADRNLSLTYLSMWLHQPYIESNSKLQLESMLLETGHRAL | failed
5 | AIANSLVRRSAQQLSLWRTYCIKHNASEAASPGRNAGRPNYEEFIGRHQRQAQCSIVVQVSSEKSYEELYNYCSSFGSIMGAHHYCVRQDETLHYILLEYATSDEAAAAIGAGVTNGELSGVPVRSPFLWFRAAGGGRRSPKLVANTAPALLSLDGTRQVDQRHLLGLLRGAADIEEQVQQLYEHTRLNELGIRMRFLAALQVQQAIAGMFPAAQAQPFGSSVNGFGRMGCDLDLILRFDSDMGAKIPLEAAVPSRLVYHTKENLSNGRSQTQRHMECFGDMLHLFLPGVCHVRRILQARVPIIKYHHEHLDLEVDLSMSNLTGFYMSELLYMFGEMDPRVRPLTFTIRRWAQTCGLTNPSPGRWISNFSLTCLVMFFLQQLRQPILPTIGALAKAAEPGDSRVTEDGINCTFTRNVDRLGFRSRNQSSLSELLLQFFEFYSQFDFHNRAISLNEGKPLSKPDHSAMYIVNPLEQLLNVSKNVSLEECERLRIEVRNAAWVLESEVENASVPEGDGQELSCGLLNLFKHPEKAVIRPNMFFKPRMVEVSDLFEQKEAGATSSSTPPTPAITYKSASVRQQVQSIKAATRSELKQLRGSGSSVPTSSPNNRRRS | failed
6 | AIARTDSSKMTDVESGVANFASSARAGRRNALPDIQSSAATDGTSDLPLKLEALSVKEDAKEKDEKTTQDQLEKPQNEEK | failed
7 | AIASSAIERKSLDPSEEPVDEVLQIPPSLLTCGGCQQNIGDRYFLKAIDQYWHEDCLSCDLCGCRLGEVGRRLYYKLGRKLCRRDYLRLFGQDGLCASCDKRIRAYEMTMRVKDKVYHLECFKCAACQKHFCVGDRYLLINSDIVCEQDIYEWTKINGMI | failed
8 | AIASSAPAPGPAPASLTLWDEEDFQGRRCRLLSDCANVCERGGLPRVRSVKVENGVWVAFEYPDFQGQQFILEKGDYPRWSAWSGSSSHNSNQLLSFRPVLCANHNDSRVTLFEGDNFQGCKFDLVDDYPSLPSMGWASKDVGSLKVSSGAWVAYQYPGYRGYQYVLERDRHSGEFCTYGELGTQAHTGQLQSIRRVQH | failed
9 | AIDHRIQYLAYREIKAAVETNKAKAGSVVVLDAHTGELLALANYPSFNPNNRSGVTPEMMRNRGVIDLFEPGSTMKPLSISLALEHGKANLNTVLDTHSYMIGPATIRDVSPQASLGILGIIQKSSNVGTSKLALLNSPEEFWKHYDALGFGRAPETGFPGEASGRLRDWHKWRPIEQATMSFGYGVSVSLIQMARAYTIFANDGVMLPVALYKTANPMPGKRVLSEKTAHEMRDLLIANSQPGGGAVGGRIIGYSIGGKSGTARKLEGRAYVANKHRALFMGFAPGHSPKVIVAVMIDEPSAGKYYGGAVSAPVFSQVAGGALRVLNIAPD | failed
10 | AIGMALVGTEGQWLQVNKSLSHFLGYSQDELRTMTFQQLTWPEDLNNDLEQLNMLVRGDINSYSMEKRYYTRNGDVVWALLAVSLVRHKDNKPLYFIAQIEDINDLKQSEQENQRLMERITQANDALFQEKERLHITLDSIG | failed
11 | AIPQHEHPMIIAGFGRFGQIIARNARLNHIGFTAIDNNLQQIDFVRRYGGTLYYGDITQPDILRAAGIEKAKVFILAIDDVEDSMNVARHIRLNYPQITLMVRARDRYQVHLLRDLGVEHIWRETYLSSLGMAYRALCELGIP | failed
12 | AISPNRASHTLADIRNQLSTRILILDGAMGTMIQGYKLEEADYRGERFKDWHTDVKGNNDLLVLTQPHIIKQIHTDYLLAGADIIETNTFNATTIAMADYDMQSLSAEINREGARLAREACDAIEQATGKPRYVAGVLGPTNRTCSISPDVNDPGFRNIHFDELVTAYCESTRALIEGGADIIMVETIFDTLNAKAALFAIETVFDELFGANSPARLPVMISGTITDASGRTLTGQTTEAFYNSLRHIKPLSIGLNCALGPKELRPYVEELSRIAECYVSAHPNAGLPNEFGGYDETPEDMAKVIQEWAREGMLNIIGGCCGSTPEHIKVIREAVEQFAPRVLPEIPVACRLAGLEPLTIDAQTLFVNVGERTNVTGSAKF | failed
13 | AIVHEMLKDTHPQYAYRSGMSAQEFTQWQDGVRAAMVEIMKFPEIKRQPSPVCVKTEKKEGYILEKWEFYPFPKSVSTFLVLKPEHLKGAVPGVLCIPGSGRTKEGLVGEPGICDKLTEDYNNPKVSMALNMVKEGYVAVAVDNAAAGEASDLECYDKGWNYDYDVVSRFLLELGWSWLGYTSYLDMQVLNWMKAQSYIRKDRIVISGFSLGTEPMMVLGVLDKDIYAFVYNDFLCQTQERAVVMTKPDKENRRPFPNSIRHLIPGYWRYFNFPDVVASLAPRPIIFTEGGLDRDFRLVQSAYAASGKPENAEFHHYPKFADKAVRKDVEHLDEGLDSKTYFEAVNVDPPSHYFKNELVIPWLRKVLK | not failed
14 | AIVNASNNAILTTSITGEILSANPAAVQMFQSLEQELKGISVSRLFAEKDEMHFFFDFQSNVYSLQRKALGISVECLSLRSDGTEFPAQAELQWADRAKQPLIVITFINLS | failed
15 | AIYVDLPNRQLKVKVADRRVISTTDAERQAVTPPGLQEAINDLVKKYTLARAFVRPSGTEDIVRVYAEANSQESADRLAYEVSLLVFQLAGGIGERPQP | not failed
16 | AKGKNLIIVQLESFQRNLTNIKIDGQSITPTLDSLQNETMYSNKFFQTVSKSNTADAEWSVYTSTFPSGYYTNTQTYGDRVIPSMPRLLGKNDYTTSTFHTNDASFYNRDEFYPAVGFDKFYDRKFFGDEDVIGFSPSDEVLYNKAFPILEKQYKNNQKFYAQLISVSSHMPFNIPEEKQEINLPSDLKDTELGNYFEAVHYADKQLGAFIQKLKDSGIWEDSVVVFYGDHHIIKTDQLPEEQKKYVNRSTELKADPADDYRIPFFLHYPGMKNPGEIKNVGGEIDIMPTVMNLLGINTGNQIMFGTDILNSTNNYVPERYTMPEGSYFTDSYMYQP | failed
17 | AKGKNVIVLHLESFQQFLIDYKLNIDGKQYEVTPFLNSLYHSKETFAFSNFFHQVKAGKTSDAETLMETSLFGLNQGSFFVQYGGDNTQQAAPHILKDTNNYSSAVFHGNIGTFWNRNNAYKQLGYQHFFDQSYMSKMTKDNSFQYGLNDKVMFADSIKYLEHMQQPFYTKFITVSNHYPYQSLDGDDTGFPLAKTEDKTINGYFATANYLDAAIKDFFDYLKASGLYKNSIIVMYGDHYGIANSRNTDLAPLLGKDSQTWTEYNNAMLQRVPYMIHVPGTDKGFISNTYGGEVDALPTLLHLLGIDNKNYIELGQDLLSPNNKQLVAFRSEGNYITPNYTSYSGRVYDTKTGV | failed
18 | AKGLRTVKTCVGSDWCRFGTQDSTGLGIRIERFMWGSWTPAKLKMAVSGCPRNCAEATCKDIGVICVDSGFEIHFAGAAGLDIKGTEVLGLVRTEDEALEYIVALTQMYREQARYLERIYKWAKRIGLEEIRRQIMGDAEK | failed
19 | AKLMNRFSTTKLNPLIGSAGVSAVPMAARVSNKVGLEANAQNFLLMHAMGPNVAGVIGSAVAAGVMIKYVMG | failed
20 | ALQAGRLGSTVFVANLDYKVGWKKLKEVFSMAGVVVRADILEDKDGKSRGIGTVTFEQSIEAVQAISMFNGQLLFDRPMHVKMDERALPKGDFFPPERPQQ | not failed
21 | ALTGHTVLVGWDGEASERIVELLGQDTSTSRAGLVICDSIITENPLPGRASFIKGDSLDSPAVLSRAGVVGAQRILVHTQSDSLTLAIVLTLKSLGPTGHVVAHFNNSERAALARTYAPELECTSNMAIEMLVRSAQDPGSSSVIT | failed
22 | ANSQLRKQRDENAELAERLASLLKMLPAGVVELSPDGRVIAENLAAESLISGCYIGEYWEAVLERLLTQEADGSFALEAGGESRRLTLQYQDLPASGGRIVLIHDV | failed
23 | ANVKLLLPYILKWEGGFVHDPADAGGATNKGVTIATWKRVGYDKDGDGDIDVEDLKLLTDDDVLNRVLKPFYWDRWKADLIESQKVANILVDWVWGSGKYGIVIPQRILGVQADGIVGNKTLQAVNSADPDELFESIFDARREFLEDITARSIKKYEDSIGRKATERELLRHTNKRFLRGWLNRLEDI | not failed
24 | AQGVGVEAILLLRRECQASHEDALHLGLAEHAPVIELQTLRKLDGQAVSLIFHRYSAVYHELLADYQGGSVRQYLAECGLPLSRAQSLIGARLPSREEAGLLLMPRHMPALTVLTVSCDGAGQPVELSRSVSRSDRFQYQVATAIPTR | not failed
25 | AQSILEKADEIRFPQDSFQVNVAIRTAAPDHAEDLYRYQVLSKGNENSIVMITEPASERGQAILMKGRDLWVFMPSVSQPIRLSLSQRLTGQVANGDIARANFTGDYHPQLLRNESIDDEDYYVLELTGIDRSVTYQKVLLWVNQSNFRPYKAEFYSVSGRLLKTSRYENFDNILGEMRPTRIIMEDALKSGEVSVLDYSDMKLRDLPDKIFTKDYLKR | not failed
26 | AQTDPSQLKKEGSDAFNAKNYPVAYAKFSEYLKQTNNQDSAIAYYCGMAADEVKKYAEAVTFFDIAIQKKFNIGNAYARKALALDAMKKTDEYVATLEEGLKVDPDNKTMIKNYGLHYLKAGIAAQKAGKVEEAEECFKKVIPLDHKTYKTNALYSLGVLCYNDGANILKKAAPLANSDADKYAAEKEKADGRFKEAIGYLEEATKVSPEDTKSKTMLSQVQAAMK | not failed
27 | ARHPQRVVAAILVAPASPESFSENGHILPEHDDTPTIRNLLPKQTLGICGLVIASENDPWMPFNQAASLAKSFGLPTINLGLSGHINVDSGHGQWPLIDVLVGNFL | failed
28 | ARIARVVVHPDYRSDGLGQLSVKAALEWIAERRIPEMRKKKHFVETIAQMARYNPFFEKVGFRYVWETASG | failed
29 | ARLEPLLIGGLYPKNLEDRILIKLDQAPPYLLDGLVAVEDRDFYHHFGVSPKSIARAIWVNTSQGQMRQGGSTLTQQLVKNFYLTNERSLSRKLTEAMMAVLLEIHYSKQEILEAYLNEVFVGQDGQRAVHGFGLASQYFFSQPLSELKIHQVAMLVGLVKGPSFYNPRRNP | failed
30 | ARLVQLSRHSIAFPSPEGALREPNGLLALGGDLSPARLLMAYQRGIFPWFSPGDPILWWSPDPRAVLWPESLHISRSMKRFHKRSPYRVTMNYAFGQVIEGCASDREEGTWITRGVVEAYHRLHELGHAHSIEVWREDELVGGMYGVAQGTLFCGESMFSRMENASKTALLVFCEEFIGHGGKLIDCQVLNDHTASLGACEIPRRDYLNYLNQMRLGRLPNNFWVPRCLFSPQE | not failed
